Assay results reported in publication PMC12629983, “Nanobody-based recombinant antivenom for cobra, mamba and rinkhals bites” (Nature, 2025).

What was measured:
Conditions in all cases: both partners purified
sNTx-5 = target: T1, sNTx-5 (Hemachatus haemachatus (L1311), …, biotin (EZ-Link NHS-PEG4-Biotin, amine coupling)); assay: BLI; […] (0.5 µg/ml) […], pH 7.2; 600 s association, 600 s dissociation; global 1:1 fit
T1 chain: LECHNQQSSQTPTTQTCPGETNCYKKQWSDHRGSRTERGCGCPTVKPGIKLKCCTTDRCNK

sNTx-6 = target: T2, sNTx-6 (Naja melanoleuca (L1318), fraction Nm3, biotin (EZ-Link NHS-PEG4-Biotin, amine coupling)); assay: as above
T2 chain: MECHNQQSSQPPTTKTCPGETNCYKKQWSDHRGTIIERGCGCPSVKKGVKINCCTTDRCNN

sNTx-1 = target: T3, sNTx-1 (Dendroaspis jamesoni (L1308, Cameroon), …); assay: as above
T3 chain: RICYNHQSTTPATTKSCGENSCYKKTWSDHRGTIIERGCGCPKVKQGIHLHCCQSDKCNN

sNTx-7 = target: T4, sNTx-7 (Naja annulifera (L1314), fraction Nan3, biotin (EZ-Link NHS-PEG4-Biotin, amine coupling)); assay: as above
T4 chain: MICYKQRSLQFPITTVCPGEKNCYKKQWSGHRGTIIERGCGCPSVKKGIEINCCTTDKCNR

lNTx-7 = target: T5, lNTx-7 (Naja kaouthia (Latoxan L8114), biotin (EZ-Link NHS-PEG4-Biotin, amine coupling)); assay: as above
T5 chain: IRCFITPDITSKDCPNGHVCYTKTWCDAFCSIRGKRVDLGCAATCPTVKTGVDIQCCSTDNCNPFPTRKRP

lNTx-3 = target: T6, lNTx-3 (Dendroaspis polylepis (L1309), fraction …, biotin (EZ-Link NHS-PEG4-Biotin, amine coupling)); assay: as above
T6 chain: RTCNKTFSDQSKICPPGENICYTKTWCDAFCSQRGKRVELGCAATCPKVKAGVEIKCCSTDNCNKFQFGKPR

Og XI-2 = target: T7, Og XI-2 (Dendroaspis viridis, UniProt P01405); assay: as above
T7 construct: source: venom fraction isolated from whole venom (Latoxan) by RP-HPLC; biotinylated

Og XI-1 = target: T8, Og XI-1 (Dendroaspis jamesoni venom (L1308); …); assay: as above
T8 construct: source: venom fraction isolated from whole venom (Latoxan) by RP-HPLC; biotinylated
T8 chain: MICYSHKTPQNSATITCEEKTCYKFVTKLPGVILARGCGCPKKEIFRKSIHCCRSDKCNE

KUN-2 [1] = target: T9, KUN-2 (Dendroaspis polylepis (L1309), fraction …, biotin (EZ-Link NHS-PEG4-Biotin, amine coupling)); assay: as above
T9 construct: source: venom fraction isolated from whole venom (Latoxan) by RP-HPLC; biotinylated
T9 chain: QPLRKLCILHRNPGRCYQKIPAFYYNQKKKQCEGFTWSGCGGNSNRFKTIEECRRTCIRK

KUN-1 = target: T10, KUN-1 (Dendroaspis jamesoni (L1308, Cameroon), …, biotin (EZ-Link NHS-PEG4-Biotin, amine coupling)); assay: as above
T10 construct: source: venom fraction isolated from whole venom (Latoxan) by RP-HPLC; biotinylated
T10 chain: T9 chain

[2] = target: protein of Hemachatus haemachatus PRINTED:77012629983_21 (Hemachatus haemachatus, fraction Hh9 …); assay: as above
[3] = target: T11, Cardiotoxin (P01468) from N. pallida (Naja pallida, UniProt P01468); assay: crystal structure
T11 construct: also called cardiotoxin (UniProt: P01468); source: bought: Latoxan (lyophilized)
T11 sequence (P01468 whole entry, looked up, one chain of several): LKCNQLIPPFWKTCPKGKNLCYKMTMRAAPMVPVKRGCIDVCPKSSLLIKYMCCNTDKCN

CTx-10 = CTx-10 (Naja pallida (Kenya, L1321)); Latoxan …, UniProt P01468, biotin (EZ-Link NHS-PEG4-Biotin, amine coupling)); assay: BLI; […], pH 7.2; 600 s association, 600 s dissociation; global 1:1 fit
CTx-10 (Naja pallida (Kenya, L1321)); Latoxan …, UniProt P01468, biotin (EZ-Link NHS-PEG4-Biotin, amine coupling)), sequence (P01468 whole entry, looked up): as the sequence (P01468 whole entry, looked up, one chain of several) above

KUN-2 [4] = target: KUN-2 (Dendroaspis polylepis (L1309), UniProt P00979, biotin (EZ-Link NHS-PEG4-Biotin, amine coupling)); assay: as above
[5] = target: T12, α-short-chain neurotoxin (P01426) from N. pallida (Naja pallida, UniProt P01426); assay: crystal structure
T12 construct: also called short neurotoxin 1 (P01426); source: bought: Latoxan (lyophilized)
T12 sequence (P01426 whole entry, one chain of several): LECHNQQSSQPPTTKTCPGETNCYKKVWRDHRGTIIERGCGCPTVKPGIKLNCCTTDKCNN

PLA2-3 = target: T13, PLA2-3 (Naja nubiae (Egypt, L1342), fraction …, UniProt P14556); assay: cryo-EM structure
T13 construct: also called basic phospholipase A2 nigexine (P14556)
T13 sequence (P14556 whole entry): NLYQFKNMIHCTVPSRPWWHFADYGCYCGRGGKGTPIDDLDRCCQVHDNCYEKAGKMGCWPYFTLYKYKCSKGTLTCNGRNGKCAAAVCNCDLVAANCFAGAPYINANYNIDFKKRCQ

B1: VHH5 a-sNTx (VHH)
VHH: QVQLQESGGGLVRPGGSLRLSCAVSGVSESIFANYVVGWFRQQDSGTGRDLVAQSSSDDEYNHVSGSVKGRFTISRDNAKNTVSLQMDNLKPEDTAIYICAAAIGPGDNYIYWGQGTQVTVSS
notes: source: E. coli BL21 (DE3), purified (Ni resin)
B1 was tested, and the Kd (sNTx-5) was 16.9 nM, the koff (sNTx-5) was 0.000631 s⁻¹ and the kon (sNTx-5) was 37400 M⁻¹ s⁻¹. For the same binder, the Kd (sNTx-6) was 5.46 nM, the koff (sNTx-6) was 0.000163 s⁻¹ and the kon (sNTx-6) was 29800 M⁻¹ s⁻¹. For the same binder, the Kd (sNTx-1) was 1.9 nM, the koff (sNTx-1) was 4.72e-05 s⁻¹ and the kon (sNTx-1) was 24900 M⁻¹ s⁻¹. For the same binder, the Kd (sNTx-7) was 0.388 nM, the koff (sNTx-7) was 1.44e-05 s⁻¹ and the kon (sNTx-7) was 37100 M⁻¹ s⁻¹.

B2: VHH9 a-lNTx (VHH)
VHH: QVQLQESGGGLVQPGGSLRLSCTASGSIFSTVNTMGWYRQAPGKQRELVAAITGGGSTNYADSVKGRFTISRDNVENTVHLRMNALKPEDTAVYYCNFQEYCSAYGCYELPHDYWGQGTQVTVSS
notes: as for B1
Work on B2 yielded a Kd (lNTx-7) of 0.753 nM, a koff (lNTx-7) of 2.71e-05 s⁻¹ and a kon (lNTx-7) of 36000 M⁻¹ s⁻¹. The Kd (lNTx-3) was 1.18 nM, the koff (lNTx-3) was 0.000203 s⁻¹ and the kon (lNTx-3) was 173000 M⁻¹ s⁻¹.

B3: VHH15 a-Og XI (VHH)
VHH: QVQLQESGGGAVPAGGSLTLSCAASGRTLSDYTMGWFRQAPGKEREIVGAISWNDGYTYYDDSVKGRFTISRDNAKNTMYLQMNSLKPEDTAVYYCAAQAPEMVRSGNFGSWGPGTQVTVSS
notes: as for B1
B3 gave a Kd (Og XI-2) of 2.16 nM, a koff (Og XI-2) of 0.000122 s⁻¹ and a kon (Og XI-2) of 56700 M⁻¹ s⁻¹. It also gave a Kd (Og XI-1) of 2.19 nM, a koff (Og XI-1) of 0.000161 s⁻¹ and a kon (Og XI-1) of 73400 M⁻¹ s⁻¹.

B4: VHH17 a-KUN (VHH)
VHH: QVQLQESGGGLVQPGGSLRLSCITSGSNFDDLSVGWFRQAPGKEREGVSCFSSSDGSTYYVDSVKGRFTMSRDNAKNTVYLQMNNLKPEDTAVYYCTADGFPYPSETMCSIPGGPDSVAWGQGTQVTVSS
notes: as for B1
In the case of B4, the Kd (KUN-2 [1]) is reported as < 0.001 nM, the koff (KUN-2 [1]) is reported as < 1e-07 s⁻¹ and the kon (KUN-2 [1]) is reported as 86900 M⁻¹ s⁻¹. It also gave a Kd (KUN-1) of 0.0405 nM, a koff (KUN-1) of 8.43e-07 s⁻¹ and a kon (KUN-1) of 20800 M⁻¹ s⁻¹.

B5:  (VHH)
VHH: QVQLQESGGGLVQAGGSLRLSCAASGRTFSSYAMAWFRQAPGKEREFVASISWNGDSTYYADSVKGRFTISGDNAKNTWYLQMKSLKPEDTAVYYCNTEDEGSGTYYEWGQGTQVTVSS
notes: also called VHH1; source: E. coli BL21 (DE3), purified (Ni resin)
B5: no binding (tested: 480 nM) [2].

B6:  (VHH)
VHH: QVQLQESGGGLVQAGGSLRLSCAAPGFTFDNYAIGWFRQAPGKEREAVSMIDVNDGDTYYADSVKGRFATSIDNARITAYLQMNSLKPEDTAVYYCAAGEQGGIETEDDYGMDYYGKGTQVTVSS
notes: also called VHH4; source: E. coli BL21 (DE3), purified (Ni resin)
B6: no binding (tested: 480 nM) [2].

B7:  (VHH)
VHH: B5 VHH
notes: also called anti-CTx VHH; source: E. coli BL21 (DE3), purified (Ni-NTA)
B7: binds [3]; binds (CTx-10).

B8: VHH17 a-KUN (VHH)
VHH: B4 VHH
notes: source: E. coli BL21 (DE3), purified (Ni-NTA)
B8: binds (KUN-2 [4]).

B9: VHH5 a-sNTx (VHH)
VHH: B1 VHH
notes: also called anti-sNTx VHH; source: E. coli BL21 (DE3), purified (Ni-NTA)
B9: binds [5].

B10: VHH20 a-PLA2 (VHH)
VHH: QVQLQESGGGLAQAGGSLRLSCAASGLAFSNYSMGWARQAPGKEREFVAAISWSHQPTYYADSVKGRFTISRDNAKNTLYLQMNSLKPEDTAVYYCAADSRPNSYRLGGPGNYWGQGTQVTVSS
notes: also called anti-PLA2 VHH
B10: binds (PLA2-3).
